Measured values from paper PMC11333492 (Nature Communications, 2024).

Target: T1, FluPolB (influenza B/Memphis/13/2003 polymerase heterotrimer) (influenza B/Memphis/13/2003, UniProt Q5V8Z9;Q5V8Y6;Q5V8X3)
T1 construct: copies: + +
Test: SEC
Conditions: both partners purified

B1: hANP32A LCAR alone (144-249) (domain or fragment)
chain: YLDGYDRDDKEAPDSDAEGYVEGLDDEEEDEDEEEYDEDAQVVEDEEDEDEEEEGEEEDVSGEEEEDEEGYNDGEVDDEEDEEELGEEERGQKRKREPEDEGEDDD
- binding result: binds
